Laboratory results reported in patent publication US20240002541A1 (Johns Hopkins, published 2024).

Experiments:
CD3 = molecular target: T1, CD3 (UniProt P07766 23-126); test: not stated (column 'Affinity' of Table 1)
T1 construct: The antigen construct is not described; also called cluster of differentiation 3; CD3ε subunit

TRBV12-3 on Jurkat cells [1] = molecular target: T2, TRBV12-3 on Jurkat cells (human, UniProt P01733 22-115); test: cell-based or functional assay
T2 sequence (TCR beta, looked up): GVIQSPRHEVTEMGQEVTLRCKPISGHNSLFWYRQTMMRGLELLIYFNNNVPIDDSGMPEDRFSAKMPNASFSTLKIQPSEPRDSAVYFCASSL

TRBV12-3 on Jurkat cells [2] = molecular target: T2, TRBV12-3 on Jurkat cells; test: cell-based or functional assay; remark: listed apart in the source
TRBV5-5 = molecular target: T3, TRBV5-5 (UniProt A0A597 22-114, limits assumed); test: not stated (column 'Affinity' of Table 1)
T3 construct: The antigen construct is not described; also called T cell receptor β chain variable 5-5
T3 sequence (TCR beta, looked up): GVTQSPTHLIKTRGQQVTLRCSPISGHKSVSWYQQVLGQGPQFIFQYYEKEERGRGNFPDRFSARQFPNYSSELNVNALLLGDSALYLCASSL

TRBC1 = molecular target: T4, TRBC1 (UniProt P01850 1-130, limits assumed); test: not stated (column 'Affinity' of Table 1)
T4 construct: The antigen construct is not described; also called T cell receptor β chain constant 1; Cβ1 TCR

[3] = molecular target: T5, TRBV5-5 on human T cells and HPB-ALL cells (human, UniProt A0A597 22-114); test: cell-based or functional assay
T5 sequence (TCR beta, looked up): T3 sequence (TCR beta, looked up)

[4] = molecular target: T5, TRBV5-5 on human T cells and HPB-ALL …; test: cell-based or functional assay; remark: listed apart in the source
CD19 = molecular target: T6, CD19 (UniProt P15391 20-291, limits assumed); test: not stated (column 'Affinity' of Table 1)
T6 construct: The antigen construct is not described
T6 sequence (looked up): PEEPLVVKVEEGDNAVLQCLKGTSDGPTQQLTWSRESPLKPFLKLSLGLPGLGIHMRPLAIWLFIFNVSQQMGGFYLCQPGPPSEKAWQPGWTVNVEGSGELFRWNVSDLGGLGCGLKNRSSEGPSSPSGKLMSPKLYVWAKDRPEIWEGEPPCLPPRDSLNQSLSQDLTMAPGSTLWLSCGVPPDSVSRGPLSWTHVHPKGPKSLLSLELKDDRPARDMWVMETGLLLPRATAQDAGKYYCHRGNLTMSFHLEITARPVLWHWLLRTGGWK

TRBV12 = molecular target: T7, TRBV12; test: not stated (column 'Affinity' of Table 1)
T7 chain: T2 sequence (TCR beta, looked up)

T1 sequence (P07766 23-126): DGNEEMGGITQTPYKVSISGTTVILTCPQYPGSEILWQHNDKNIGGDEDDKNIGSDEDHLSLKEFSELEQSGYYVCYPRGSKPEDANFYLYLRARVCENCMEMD
T4 sequence (P01850 1-130 limits assumed): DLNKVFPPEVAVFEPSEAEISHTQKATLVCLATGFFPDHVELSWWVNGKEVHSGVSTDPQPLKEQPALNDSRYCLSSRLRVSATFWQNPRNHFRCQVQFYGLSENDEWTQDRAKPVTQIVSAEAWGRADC

B1: α-CD3 scFv (clone UCHT1.v9) (scFv, V domains shown)
VH: EVQLVESGGGLVQPGGSLRLSCAASGYSFTGYTMNWVRQAPGKGLEWVALINPYKGVSTYNQKFKDRFTISVDKSKNTAYLQMNSLRAEDTAVYYCARSGYYGDSDWYFDVWGQGTLVTVSS
VL: DIQMTQSPSSLSASVGDRVTITCRASQDIRNYLNWYQQKPGKAPKLLIYYTSRLESGVPSRFSGSGSGTDYTLTISSLQPEDFATYYCQQGNTLPWTFGQGTKVEIK
notes: also called anti-CD3 scFv
Kd (CD3): 4700 pM

B2: anti-TRBV12 BsAb (α-V12) (bispecific antibody)
chain: ENVLTQSPAIMSASLGEKVTMSCRASSSVNYIYWYQQKSDASPKLWIYYTSNLAPGVPTRFSGSGSGNSYSLTISSMEGEDAATYYCQQFTSSPFTFGQGTKLEIKGGGGSEVQLVESGGGLVQPGGSLRLSCAASGYSFTGYTMNWVRQAPGKGLEWVALINPYKGVSTYNQKFKDRFTISVDKSKNTAYLQMNSLRAEDTAVYYCARSGYYGDSDWYFDVWGQGTLVTVSSGGGGSGGGGSGGGGSDIQMTQSPSSLSASVGDRVTITCRASQDIRNYLNWYQQKPGKAPKLLIYYTSRLESGVPSRFSGSGSGTDYTLTISSLQPEDFATYYCQQGNTLPWTFGQGTKVEIKGGGGSDVQLVESGGGLVQPGGSRKLSCAASGFTFSNFGMHWVRQAPDKGLEWVAYISSGSSTIYYADTLKGRFTISRDNPKNTLFLQMTSLRSEDTAMYYCARRGEGAMDYWGQGTSVTVSSHHHHHH
EC50 of GM-CSF release (Luminex), Jurkat WT + T cells, 17 hours (TRBV12-3 on Jurkat cells [1]): 12.1 pM | EC50 of IFNγ release (Luminex), Jurkat WT + T cells, 17 hours (TRBV12-3 on Jurkat cells [1]): 23.5 pM | EC50 of IL2 release (Luminex), Jurkat WT + T cells, 17 hours (TRBV12-3 on Jurkat cells [1]): 20.5 pM | EC50 of IL5 release (Luminex), Jurkat WT + T cells, 17 hours (TRBV12-3 on Jurkat cells [1]): 12.4 pM | EC50 of TNFα release (Luminex), Jurkat WT + T cells, 17 hours (TRBV12-3 on Jurkat cells [1]): 13.8 pM | EC50 of the loss of Jurkat viability (luminescence), 5x10^4 Jurkat cells with 5x10^4 normal human T cells, 17 hours (TRBV12-3 on Jurkat cells [2]): 0.78 pM

B3: α-TRBV5-5 scFv (clone TM23) (scFv, V domains shown)
VH: QVQLKESGPGLVAPSQSLSITCTVSGFSLTAYGVNWVRQPPGKGLEWLGMIWGDGNTDYNSALKSRLSISKDNSKSQVFLKMNSLQTDDTARYYCARDRVTATLYAMDYWGQGTSVTVSS
VL: DIQMTQTTSSLSASLGDRVTITCSASQGISNYLNWYQQKPDGTVKLLIYYTSSLHSGVPSRFSGSGSGTDYSLTISNLEPEDIATYYCQQYSKLPRTFGGGTKVEIK
notes: also called anti-TRBV5-5 scFv
Kd (TRBV5-5): 25200 pM

B4: α-TRBC1 scFv (clone Jovi-1) (scFv, V domains shown)
VH: EVRLQQSGPDLIKPGASVKMSCKASGYTFTGYVMHWVKQRPGQGLEWIGFINPYNDDIQSNERFRGKATLTSDKSSTTAYMELSSLTSEDSAVYYCARGAGYNFDGAYRFFDFWGQGTTLTVSS
VL: DVVMTQSPLSLPVSLGDQASISCRSSQRLVHSNGNTYLHWYLQKPGQSPKLLIYRVSNRFPGVPDRFSGSGSGTDFTLKISRVEAEDLGIYFCSQSTHVPYTFGGGTKLEIKR
notes: also called anti-TRBC1 scFv
Kd (TRBC1): 400 pM

B5: anti-TRBV5-5 BsAb (α-V5) (bispecific antibody)
chain: DIQMTQTTSSLSASLGDRVTITCSASQGISNYLNWYQQKPDGTVKLLIYYTSSLHSGVPSRFSGSGSGTDYSLTISNLEPEDIATYYCQQYSKLPRTFGGGTKVEIKGGGGSEVQLVESGGGLVQPGGSLRLSCAASGYSFTGYTMNWVRQAPGKGLEWVALINPYKGVSTYNQKFKDRFTISVDKSKNTAYLQMNSLRAEDTAVYYCARSGYYGDSDWYFDVWGQGTLVTVSSGGGGSGGGGSGGGGSDIQMTQSPSSLSASVGDRVTITCRASQDIRNYLNWYQQKPGKAPKLLIYYTSRLESGVPSRFSGSGSGTDYTLTISSLQPEDFATYYCQQGNTLPWTFGQGTKVEIKGGGGSQVQLKESGPGLVAPSQSLSITCTVSGFSLTAYGVNWVRQPPGKGLEWLGMIWGDGNTDYNSALKSRLSISKDNSKSQVFLKMNSLQTDDTARYYCARDRVTATLYAMDYWGQGTSVTVSSHHHHHH
EC50 of the loss of HPB-ALL viability (luminescence), 5x10^4 HPB-ALL cells with 5x10^4 normal human T cells, 17 hours [3]: 2.09 pM | EC50 of GM-CSF release (Luminex), HPB-ALL WT + T cells, 17 hours [4]: 42.3 pM | EC50 of IFNγ release (Luminex), HPB-ALL WT + T cells, 17 hours [4]: 31.1 pM | EC50 of IL2 release (Luminex), HPB-ALL WT + T cells, 17 hours [4]: 94.5 pM | EC50 of IL5 release (Luminex), HPB-ALL WT + T cells, 17 hours [4]: 54.4 pM | EC50 of TNFα release (Luminex), HPB-ALL WT + T cells, 17 hours [4]: 166 pM

B6: α-CD19 scFv (clone HD37) (scFv, V domains shown)
VH: QVQLQQSGAELVRPGSSVKISCKASGYAFSSYWMNWVKQRPGQGLEWIGQIWPGDGDTNYNGKFKGKATLTADESSSTAYMQLSSLASEDSAVYFCARRETTTVGRYYYAMDYWGQGTTVTVSS
VL: DIQLTQSPASLAVSLGQRATISCKASQSVDYDGDSYLNWYQQIPGQPPKLLIYDASNLVSGIPPRFSGSGSGTDFTLNIHPVEKVDAATYHCQQSTEDPWTFGGGTKLEIK
notes: also called anti-CD19 scFv
Kd (CD19): 300 pM

B7: α-TRBV12 scFv (clone 16G8) (scFv, V domains shown)
VH: DVQLVESGGGLVQPGGSRKLSCAASGFTFSNFGMHWVRQAPDKGLEWVAYISSGSSTIYYADTLKGRFTISRDNPKNTLFLQMTSLRSEDTAMYYCARRGEGAMDYWGQGTSVTVSS
VL: ENVLTQSPAIMSASLGEKVTMSCRASSSVNYIYWYQQKSDASPKLWIYYTSNLAPGVPTRFSGSGSGNSYSLTISSMEGEDAATYYCQQFTSSPFTFGQGTKLEIK
notes: also called anti-TRBV12 scFv
Kd (TRBV12): 2600 pM
